Our source for the protein stability index values is the supplement of paper PMC10567573.

The chains are these.
B1: VPS39 (parent)
chain: QQVKCIITEEKVCMVCKKKIGNSA
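Note: lentivirally expressed fusions sorted by FACS into six bins by GFP to DsRed ratio, PSI derived from sequencing read proportions per bin multiplied by bin number.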

The variants in this data set derive from B1. Kind of data set: protein stability index of a GFP-peptide fusion (GPS, HEK-293T) (PSI 1-6); higher = more stable. Conditions: c terminus: a fixed tail appended.
Take QRVKCIITEEKVCMVCKKKIGNSA [Q2R]: the protein stability index is 2.59. To QLVKCIITEEKVCMVCKKKIGNSA [Q2L] belongs 2.4.

Regarding QHVKCIITEEKVCMVCKKKIGNSA [Q2H], the protein stability index is 3.05. In the case of QGVKCIITEEKVCMVCKKKIGNSA [Q2G] it was 2.32; in that of QTVKCIITEEKVCMVCKKKIGNSA [Q2T], 2.61; in that of QAVKCIITEEKVCMVCKKKIGNSA [Q2A], 2.94. In the case of QMVKCIITEEKVCMVCKKKIGNSA [Q2M] it was 2.93; in that of QNVKCIITEEKVCMVCKKKIGNSA [Q2N], 2.26.

As to QYVKCIITEEKVCMVCKKKIGNSA [Q2Y], the protein stability index turned out to be 2.37. In the case of QQNKCIITEEKVCMVCKKKIGNSA [V3N] it was 2.8. To QQPKCIITEEKVCMVCKKKIGNSA [V3P] belongs 3.49. In the case of QQHKCIITEEKVCMVCKKKIGNSA [V3H] it was 5.16. QQDKCIITEEKVCMVCKKKIGNSA [V3D]: the protein stability index is 3.92.

Take QQLKCIITEEKVCMVCKKKIGNSA [V3L]: the protein stability index came out at 2.77. In the case of QQCKCIITEEKVCMVCKKKIGNSA [V3C] it was 4.46; in that of QQYKCIITEEKVCMVCKKKIGNSA [V3Y], 2.58. In the case of QQMKCIITEEKVCMVCKKKIGNSA [V3M] it was 2.8; in that of QQGKCIITEEKVCMVCKKKIGNSA [V3G], 3.01; in that of QQIKCIITEEKVCMVCKKKIGNSA [V3I], 2.38. To QQFKCIITEEKVCMVCKKKIGNSA [V3F] belongs 1.89; to QQAKCIITEEKVCMVCKKKIGNSA [V3A], 2.81; to QQQKCIITEEKVCMVCKKKIGNSA [V3Q], 3.32.

As to QQSKCIITEEKVCMVCKKKIGNSA [V3S], the protein stability index is 3.17. In the case of QQWKCIITEEKVCMVCKKKIGNSA [V3W] it was 1.49; in that of QQEKCIITEEKVCMVCKKKIGNSA [V3E], 3.47. To QQTKCIITEEKVCMVCKKKIGNSA [V3T] belongs 2.82; to QQKKCIITEEKVCMVCKKKIGNSA [V3K], 2.89; to QQRKCIITEEKVCMVCKKKIGNSA [V3R], 2.5. To QQVKCGITEEKVCMVCKKKIGNSA [I6G] belongs 2.47. As for QQVKCLITEEKVCMVCKKKIGNSA [I6L], the protein stability index was found to be 2.45. Take QQVKCQITEEKVCMVCKKKIGNSA [I6Q]: the protein stability index was 3.13. In the case of QQVKCNITEEKVCMVCKKKIGNSA [I6N] it was 3.25.

For QQVKCYITEEKVCMVCKKKIGNSA [I6Y], the protein stability index came out at 2.49. For QQVKCAITEEKVCMVCKKKIGNSA [I6A], the protein stability index came to 2.67. In the case of QQVKCRITEEKVCMVCKKKIGNSA [I6R] it was 2.6; in that of QQVKCEITEEKVCMVCKKKIGNSA [I6E], 3.96. In the case of QQVKCCITEEKVCMVCKKKIGNSA [I6C] it was 3.34. In the case of QQVKCDITEEKVCMVCKKKIGNSA [I6D] it was 3.82; in that of QQVKCWITEEKVCMVCKKKIGNSA [I6W], 1.75; in that of QQVKCTITEEKVCMVCKKKIGNSA [I6T], 3.38. Regarding QQVKCPITEEKVCMVCKKKIGNSA [I6P], the protein stability index was 4.07.

For QQVKCHITEEKVCMVCKKKIGNSA [I6H], the protein stability index was 3.47. In the case of QQVKCKITEEKVCMVCKKKIGNSA [I6K] it was 3.46; in that of QQVKCVITEEKVCMVCKKKIGNSA [I6V], 3.05. In the case of QQVKCFITEEKVCMVCKKKIGNSA [I6F] it was 2.6. To QQVKCSITEEKVCMVCKKKIGNSA [I6S] belongs 3.5; to QQVKCMITEEKVCMVCKKKIGNSA [I6M], 2.93.

Turning to QQVKCIIYEEKVCMVCKKKIGNSA [T8Y], the protein stability index is 2.6. For the variant QQVKCIIPEEKVCMVCKKKIGNSA [T8P], the protein stability index was found to be 4.09.

For the variant QQVKCIIGEEKVCMVCKKKIGNSA [T8G], the protein stability index is 3.42. Take QQVKCIIIEEKVCMVCKKKIGNSA [T8I]: the protein stability index was 2.12. In the case of QQVKCIICEEKVCMVCKKKIGNSA [T8C] it was 2.48; in that of QQVKCIIEEEKVCMVCKKKIGNSA [T8E], 3.48; in that of QQVKCIIVEEKVCMVCKKKIGNSA [T8V], 2.12. In the case of QQVKCIIAEEKVCMVCKKKIGNSA [T8A] it was 2.45; in that of QQVKCIIDEEKVCMVCKKKIGNSA [T8D], 3.08; in that of QQVKCIINEEKVCMVCKKKIGNSA [T8N], 2.9. In the case of QQVKCIIREEKVCMVCKKKIGNSA [T8R] it was 2.45; in that of QQVKCIIQEEKVCMVCKKKIGNSA [T8Q], 3.34. In the case of QQVKCIIFEEKVCMVCKKKIGNSA [T8F], the protein stability index is 1.52.

With QQVKCIIHEEKVCMVCKKKIGNSA [T8H], the protein stability index worked out at 2.81. To QQVKCIILEEKVCMVCKKKIGNSA [T8L] belongs 2.16; to QQVKCIIKEEKVCMVCKKKIGNSA [T8K], 2.47. For the variant QQVKCIIWEEKVCMVCKKKIGNSA [T8W], the protein stability index was 2.87.

On to QQVKCITTEEKVCMVCKKKIGNSA [I7T], for which the protein stability index worked out at 2.69.

On to QQVKCIMTEEKVCMVCKKKIGNSA [I7M], for which the protein stability index was found to be 3.54. To QQVKCIPTEEKVCMVCKKKIGNSA [I7P] belongs 4.23; to QQVKCIATEEKVCMVCKKKIGNSA [I7A], 3.38; to QQVKCINTEEKVCMVCKKKIGNSA [I7N], 2.84. In the case of QQVKCIFTEEKVCMVCKKKIGNSA [I7F], the protein stability index worked out at 2.97. In the case of QQVKCIDTEEKVCMVCKKKIGNSA [I7D] it was 3.49; in that of QQVKCIETEEKVCMVCKKKIGNSA [I7E], 3.01. On to QQVKCILTEEKVCMVCKKKIGNSA [I7L], for which the protein stability index came to 2.11. Regarding QQVKCIRTEEKVCMVCKKKIGNSA [I7R], the protein stability index was determined as 2.86. To QQVKCIHTEEKVCMVCKKKIGNSA [I7H] belongs 4.39.

On to QQVKCIGTEEKVCMVCKKKIGNSA [I7G], for which the protein stability index came to 2.77.

In the case of QQVKCIWTEEKVCMVCKKKIGNSA [I7W], the protein stability index stood at 2.46. In the case of QQVKCIQTEEKVCMVCKKKIGNSA [I7Q] it was 2.76; in that of QQVKCIVTEEKVCMVCKKKIGNSA [I7V], 3.4. In the case of QQVKCISTEEKVCMVCKKKIGNSA [I7S] it was 3.06; in that of QQVKCIKTEEKVCMVCKKKIGNSA [I7K], 2.9; in that of QQVKCIYTEEKVCMVCKKKIGNSA [I7Y], 3.28. To QQVKCICTEEKVCMVCKKKIGNSA [I7C] belongs 4.47.

For QQVKCIITIEKVCMVCKKKIGNSA [E9I], the protein stability index was 1.81. In the case of QQVKCIITMEKVCMVCKKKIGNSA [E9M] it was 1.33. Take QQVKCIITAEKVCMVCKKKIGNSA [E9A]: the protein stability index came to 2.22. To QQVKCIITNEKVCMVCKKKIGNSA [E9N] belongs 1.87; to QQVKCIITFEKVCMVCKKKIGNSA [E9F], 2.94; to QQVKCIITHEKVCMVCKKKIGNSA [E9H], 1.85. In the case of QQVKCIITDEKVCMVCKKKIGNSA [E9D] it was 3.29; in that of QQVKCIITGEKVCMVCKKKIGNSA [E9G], 2; in that of QQVKCIITLEKVCMVCKKKIGNSA [E9L], 1.73. To QQVKCIITCEKVCMVCKKKIGNSA [E9C] belongs 1.8; to QQVKCIITKEKVCMVCKKKIGNSA [E9K], 2.49.
